Laboratory results as given in paper PMC3553976.

Target: U2AF65 (UniProt P26368)
Assay: NMR binding data
Conditions: reference: non-phosphorylated SF1 construct; sites S80,S82

splicing factor 1 (SF1) (from UniProt Q15637) KIS-phosphorylated SF1 construct
binding against the reference: same
